Data on 7 molecules can be found in article PMC7160140, “Allosteric regulation accompanied by oligomeric state changes of Trypanosoma brucei GMP reductase through cystathionine-β-synthase domain” (Nature Communications, 2020).

Like-named read-outs stand apart in the source and are kept apart here.

Data set [1] has as its target TbGMPR C318A (inactive mutant of Trypanosoma brucei GMP reductase) (Trypanosoma brucei (ILTat 1.4)). Kind of data set: crystal structure; TbGMPR C318A co-crystallised with up to 3 mM GMP (C318A/GMP), 1.90 Å; 4 °C.
Data set [2] has the same target. Kind of data set: crystal structure; TbGMPR C318A without ligand (C318A apo), 2.80 Å; sitting drop, 4 °C; oligomer from crystal packing by PISA.
The target in data set [3] is TbGMPR∆CBS (Trypanosoma brucei GMP reductase lacking the CBS domain) (Trypanosoma brucei (ILTat 1.4)). Kind of data set: SEC-SAXS. On the technique in general: SEC sorts molecules by how far they enter the pores of the column.
The target of data set [4] is T1, TbGMPR (guanosine 5′-monophosphate reductase) (Trypanosoma brucei, UniProt Q57ZS7).
T1 sequence (Q57ZS7 1-491): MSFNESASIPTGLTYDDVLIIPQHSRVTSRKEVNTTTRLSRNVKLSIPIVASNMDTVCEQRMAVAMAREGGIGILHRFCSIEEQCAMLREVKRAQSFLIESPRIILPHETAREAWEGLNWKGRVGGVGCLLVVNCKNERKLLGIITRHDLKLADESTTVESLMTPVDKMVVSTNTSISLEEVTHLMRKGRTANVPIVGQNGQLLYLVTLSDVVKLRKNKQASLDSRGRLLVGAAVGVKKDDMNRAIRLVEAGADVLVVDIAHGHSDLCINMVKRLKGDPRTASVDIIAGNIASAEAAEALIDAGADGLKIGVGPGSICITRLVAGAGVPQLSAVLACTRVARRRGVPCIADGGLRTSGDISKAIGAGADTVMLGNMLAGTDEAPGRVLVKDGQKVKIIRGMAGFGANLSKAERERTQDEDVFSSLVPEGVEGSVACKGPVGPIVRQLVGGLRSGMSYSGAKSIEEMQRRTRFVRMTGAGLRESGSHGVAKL
In words: co-crystal structure at […] Å; activation of purified enzyme (EC50). The arrangement: gene Tb05.1P6.110; wild-type, C-terminal histidine-tag. The data set is classed as biochemical.

In data set [5] the target is T2, TbGMPR (guanosine 5′-monophosphate reductase) (Trypanosoma brucei, UniProt Q57ZS7, W115R).
T2 construct: gene Tb05.1P6.110; full-length, C-terminal histidine-tag
Kind of data set: tryptophan fluorescence quenching. The data set is classed as binding.

The target of data set [6] is T2, TbGMPR (guanosine 5′-monophosphate reductase). In words: tryptophan fluorescence quenching (no Kd obtained). The data set is classed as binding.
Data set [7] deals with Trypanosoma brucei guanosine 5'-monophosphate reductase, wild type (Trypanosoma brucei (ILTat 1.4)). Kind of data set: SEC-SAXS; with 10 mM ATP; 4 or 12 mg/mL protein in 50 mM Tris-HCl pH 7.8, 0.5 M KCl, 3 mM EDTA, 1 mM DTT; 20 °C; fractions fitted by OLIGOMER; octamer to tetramers.
For data set [8] the target is unchanged. Kind of data set: crystal structure; wild-type TbGMPR co-crystallised with up to 1 mM GTP (TbGMPR/GTP), 2.50 Å; 20 °C.
The target is the same in data set [9]. In words: SEC-SAXS; with 10 mM GMP; 4 or 12 mg/mL protein in 50 mM Tris-HCl pH 7.8, 0.5 M KCl, 3 mM EDTA, 1 mM DTT; 20 °C; fractions fitted by OLIGOMER
For data set [10] the target is unchanged. Kind of data set: SEC-SAXS; no ligand; 4 or 12 mg/mL protein in 50 mM Tris-HCl pH 7.8, 0.5 M KCl, 3 mM EDTA, 1 mM DTT; Shodex KW403-4F; 20 °C; mass from volume of correlation, fractions of tetramer and octamers fitted by OLIGOMER
Data set [11] has the same target. Kind of data set: SEC-SAXS; with 10 mM GTP; 4 or 12 mg/mL protein in 50 mM Tris-HCl pH 7.8, 0.5 M KCl, 3 mM EDTA, 1 mM DTT; 20 °C; fractions fitted by OLIGOMER
Data set [12] deals with T1, TbGMPR (guanosine 5′-monophosphate reductase). In words: biochemical. Details: gene Tb05.1P6.110.
Substrate in the data set “purified protein”: Nc1nc2c(ncn2[C@@H]2O[C@H](COP(=O)(O)O)[C@@H](O)[C@H]2O)c(=O)[nH]1
Kind of data set: purified protein. In kind it is biochemical, Trypanosoma brucei. The settings on record: NADPH active site; positive cooperativity via CBS domain.

Usually stoichiometry N stands for the number of molecules, sites or subunits per partner or assembly. For “TbGMPR C318A (inactive mutant of Trypanosoma brucei GMP reductase) (enzyme)”, the stoichiometry N in data set [1] and in data set [2] was 8 in each case.

Regarding “TbGMPR∆CBS (Trypanosoma brucei GMP reductase lacking the CBS domain) (enzyme)”, the stoichiometry N in data set [3] was found to be 4.

What is called EC50 is the concentration at which the effect is half-maximal. Broadly, the Kd is the constant that tells how readily two partners part at equilibrium. For the molecule `Nc1nc2c(ncn2[C@@H]2O[C@H](COP(=O)(O)OP(=O)(O)OP(=O)(O)O)[C@@H](O)[C@H]2O)c(=O)[nH]1` [GTP], the EC50 in data set [4] amounted to 4.8 µM. Also, the Kd in data set [5] (read-out: Kd) amounted to 6.75 ± 0.58 µM.

Consider `Nc1nc2c(ncn2[C@@H]2O[C@H](COP(=O)(O)O)[C@@H](O)[C@H]2O)c(=O)[nH]1` [GMP], for which, in data set [6], the “tryptophan fluorescence quenching (no Kd obtained)” value is “blue-shifting of the emission spectra of the protein with either GTP or GMP, but not with ATP”.

“Trypanosoma brucei guanosine 5'-monophosphate reductase, wild type (enzyme)”: the Octamer, relaxed (%) in [7] came to 28%; in data set [9], 0%; in data set [10] it was 53.2%; in [11] it was 0%. Moreover, the Octamer, twisted (%) in data set [7] came to 11.2%; in data set [9], 97.8%; in data set [10] it was 46.8%; in data set [11] it was 100%. Further, the Tetramer (%) in data set [7] came to 60.8%; in [9] it was 2.2%; in data set [10], 0%; in [11] it was 0%. Moreover, the stoichiometry N in data set [8] and in data set [10] was 8 throughout.

`Nc1ncnc2c1ncn2[C@@H]1O[C@H](COP(=O)(O)OP(=O)(O)OP(=O)(O)O)[C@@H](O)[C@H]1O` [ATP] displayed an EC50 in data set [12] of 160 µM. This molecule registered a Kd in [5] of 194 ± 45 µM.

B1: TbGMPR (guanosine 5′-monophosphate reductase) (Trypanosoma brucei brucei TREU927) (protein)
chain: T1 sequence (Q57ZS7 1-491)
notes: wild-type, C-terminal histidine-tag
The kcat is the maximal rate divided by the concentration of active sites. One may read the kcat/Km as the second-order rate constant that governs catalysis at low substrate concentration. Consider B1, for which, in “purified protein”, the K0.5 is 184 ± 3 µM, the kcat was 0.2783 ± 0.0025 s⁻¹ and the kcat/Km is 1520 M⁻¹ s⁻¹.
